The data set deals with HIV-1 matrix MA1-131 (HIV-1, UniProt C1JB69 2-132). Kind of data set: ITC.

As a reminder, the Kd is the concentration at which binding is half-saturated.

B1: human tRNALys3, in vitro transcribed (structured_RNA)
RNA: GCCCGGAUAGCUCAGUCGGUAGAGCAUCAGACUUUUAAUCUGAGGGUCCAGGGUUCAAGUCCCUGUUCGGGCGCCA
modifications: unmodified transcript
B1 yielded a Kd of 270 ± 20 nM.
